Source: patent publication US20250282874A1 (SUZHOU TRANSCENTA THERAPEUTICS, published 2025)
Read-outs that look alike come from different tables or passages of the source.

Experiments:
[1] = target: T1, human PD-L1 expressed on cells (human, UniProt Q9NZQ7 19-290); assay: cell-based or functional assay
[2] = target: T1, human PD-L1 expressed on cells; assay: cell-based or functional assay; remark: listed apart in the source
[3] = target: T1, human PD-L1 expressed on cells; assay: cell-based or functional assay; remark: listed apart in the source
[4] = target: T1, human PD-L1 expressed on cells; assay: flow cytometry on NCI-H292 cells, Mean FITC-A
[5] = target: T1, human PD-L1 expressed on cells; assay: flow cytometry on NCI-H460 cells, Mean FITC-A
[6] = target: T2, hPD-L1 (Acro Biosystems, PD1-H5229) (human, UniProt Q9NZQ7 19-238); assay: ELISA, hPD-L1 coated, anti-human Fc-HRP, OD450
T2 construct: also called human PD-L1; hPD-L1 protein

[7] = target: T2, hPD-L1 (Acro Biosystems, PD1-H5229); assay: ELISA, hPD-L1 coated, anti-human Fc-HRP, OD450; remark: listed apart in the source
Method: Then 300 μL of 2% (w/v) BSA was added for blocking at room temperature for 1 h. […] After incubation at room temperature for 1 h, mixed TMB substrate reagent (InnoReagents, TMB-S-003) was added and incubated at room temperature for 5 min, and stopped by adding 0.1M H₂SO₄. OD450 nm was recorded by Microplate Reader. The data was analyzed by Graphpad prism.

[8] = target: T1, human PD-L1 expressed on cells; assay: flow cytometry on MC38/hPD-L1 cells, Mean FITC-A
[9] = target: T1, human PD-L1 expressed on cells; assay: flow cytometry on EMT6/hPD-L1 cells, Mean FITC-A
[10] = target: T1, human PD-L1 expressed on cells; assay: flow cytometry on activated human T cells, Mean FITC-A
[11] = target: T1, human PD-L1 expressed on cells; assay: flow cytometry on 293T-PD-L1-CD3L cells, Mean FITC-A as printed
Method: The cell was transfected with both human PD-L1 and anti-CD3 scFv. […] After centrifugation and removing the supernatant, the diluted antibodies were added to the plate and incubated in 4° C. for 30 min. […] After washing, cells were resuspended in 200 μL PBS and analyzed by flow cytometry. The data was analyzed by Graphpad prism.

[12] = target: T1, human PD-L1 expressed on cells; assay: flow cytometry on PHA-activated human PBMC (T cells), Mean APC-A
Method: Human PBMC (TPCS, Cat #PB025C) was recovered from liquid nitrogen and resuspended in RPMIi640 with 10% FBS. 5 μg/mL PHA (Sigma, Cat #L8902) was added to stimulate PBMC activation and cells were cultured for 3 days. […] After centrifugation and removal of the supernatant in the plate, the diluted antibodies were added to the plate with the activated PBMC and incubated in 4° C. for 1 hour. […] After washing, cells were resuspended in 150 μL PBS and analyzed by flow cytometry.

[13] = target: T1, human PD-L1 expressed on cells; assay: flow cytometry on 293T-PD-L1-CD3L cells, PE anti-human IgG, Mean PE-A
Method: After centrifugation and removing the supernatant, the diluted antibodies were added to the plate and incubated in 4° C. for 30 min. […] After washing, cells were resuspended in 200 μL PBS and analyzed by flow cytometry. The data was analyzed by Graphpad prism.

[14] = target: cynomolgus PD-L1 on activated cynomolgus T cells (cynomolgus, UniProt G7PSE7 19-290); assay: flow cytometry on PHA-activated cynomolgus PBMC (T cells), Mean APC-A
cynomolgus PD-L1 on activated cynomolgus T cells, sequence (G7PSE7 entry or part of it limits assumed): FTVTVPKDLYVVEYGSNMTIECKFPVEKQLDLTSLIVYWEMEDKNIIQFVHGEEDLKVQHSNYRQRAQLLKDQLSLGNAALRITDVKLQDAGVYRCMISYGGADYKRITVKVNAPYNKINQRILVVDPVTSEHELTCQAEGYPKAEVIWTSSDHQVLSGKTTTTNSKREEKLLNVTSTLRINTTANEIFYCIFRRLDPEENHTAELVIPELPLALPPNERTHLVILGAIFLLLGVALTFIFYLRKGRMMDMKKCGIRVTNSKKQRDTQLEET
Method: Human or cynomolgus PBMC (TPCS, Cat #PB025C) was recovered from liquid nitrogen and resuspended in RPMIi640 with 10% FBS. 5 μg/mL PHA (Sigma, Cat #L8902) was added to stimulate PBMC activation and cells were cultured for 3 days. […] After centrifugation and removal of the supernatant in the plate, the diluted antibodies were added to the plate with the activated PBMC and incubated in 4° C. for 1 hour. […] After washing, cells were resuspended in 150 μL PBS and analyzed by flow cytometry.

human TGFβ1 = target: T3, human TGFβ1 (human, UniProt P01137 279-390); assay: bridging ELISA, hTGFβ-1 coated, detected with hPD-L1-biotin and streptavidin-HRP
T3 construct: also called hTGFβ-1; TGFb1
T3 sequence (P01137 279-390 limits assumed): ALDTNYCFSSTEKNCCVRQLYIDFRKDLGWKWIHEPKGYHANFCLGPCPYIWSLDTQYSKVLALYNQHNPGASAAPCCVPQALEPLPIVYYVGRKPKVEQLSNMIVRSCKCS
Method: 0.5 μg/mL hTGFβ-1 was coated to the ELISA plate and left overnight at 4° C. Then 300 µL of blocking buffer was added for blocking at room temperature for 1 h. […] 1h later, 100 μL HRP-conjugated streptavidin (1:5000) was added. After incubation at room temperature for 1 h, mixed TMB substrate reagent (InnoReagents, TMB-S-003) was added and incubated at room temperature for 5 min, and stopped by adding 0.1M H₂SO₄. OD450 nm was recorded by Microplate Reader.

human PD-L1-Fc = target: T4, human PD-L1-Fc (human, UniProt Q9NZQ7 19-239); assay: competition ELISA, hPD-L1-Fc coated; blocked ligand hPD-1-Fc-biotin, OD450
T4 construct: also called hPD-L1-Fc; human PD-L1-Fc (Sino Biological, 70110-D02H); not shown: Fc part

cynoPD-L1-Fc = cynoPD-L1-Fc (cynomolgus, UniProt G7PSE7 19-238, Fc carrier is left out of the letters.); assay: competition ELISA, cynoPD-L1-Fc coated; blocked ligand cyno PD-1-Fc-biotin, OD450
cynoPD-L1-Fc, sequence (G7PSE7 entry or part of it limits assumed): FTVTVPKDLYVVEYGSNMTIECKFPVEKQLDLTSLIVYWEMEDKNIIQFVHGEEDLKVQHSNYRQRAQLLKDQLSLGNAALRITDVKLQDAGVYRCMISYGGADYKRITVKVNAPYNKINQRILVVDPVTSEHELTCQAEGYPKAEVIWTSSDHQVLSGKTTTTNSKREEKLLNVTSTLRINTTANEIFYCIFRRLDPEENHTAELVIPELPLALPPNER
Method: 300 μL of 3% (w/v) skim milk was added for blocking at room temperature for 1 h. […] 0.5% PBS+Tween-20 were used for washing for 3 times, and 100 μL HRP-conjugated streptavidin (1:5000) was added.

B1: AM4B6-hIgG1 monoclonal antibody (antibody, V domains shown)
VH: QVQLVQSGAEVKKPGASVKVSCKASGYVFTDYYMNWVRQAPGQSLEWMGDINPNNAETLYNHKFKGRVTVTVDKSISTAYMELSRLRSDDTAVYYCVKWGDGPFAYWGQGTLVTVSS
VL: DIQMTQSPSSLSASVGDRVTITCKASQNVGAAVAWYQQKPGKAPKLLIYSVSDRYTGVPSRFSGSGSGTDFTLTISSLQPEDIATYYCQQYSNYPTFGQGTKLEIK
notes: hIgG1; also called AM4B6 mAb; AM4B6 monoclonal antibody
[1]
  IC50 (so in the source), NFAT-luciferase luminescence, hPD-L1/hPD-1 reporter cell assay: 0.714 nM
[2]
  IC50 (so in the source), NFAT-luciferase luminescence, 293T-PD-L1-CD3L cells with Jurkat-NFAT-Luc-PD1 cells: 1.08 nM
[3]
  IC50 (so in the source), luminescence (axis printed OD450), 293T-PD-L1-CD3L cells with Jurkat-NFAT-Luc-PD1 cells: 0.994 nM
[4]
  EC50: 0.199 nM
[5]
  EC50: 0.222 nM
[6]
  EC50: 0.0313 nM
[7]
  EC50: 0.0114 nM
[8]
  EC50: 0.299 nM
[9]
  EC50: 0.24 nM
[10]
  EC50: 0.16 nM
[11]
  EC50: 0.774 nM
[12]
  EC50: 0.267 nM
[13]
  EC50: 0.903 nM
[14]
  EC50: 0.684 nM
Human TGFβ1
  binding result: no binding (tested: 100 nM)
Human PD-L1-Fc
  IC50: 2.28 nM
cynoPD-L1-Fc
  IC50: 2.06 nM
